{"source": "patent US11781118B2", "about": "“Preparation of L-amino acid deaminase mutant and application thereof” (Jiangnan University, priority 2020, dated 2023)", "data": [{"assay": "Shake flask screening of mutants: whole-cell transformation of L-valine, α-ketoisovaleric acid determined by HPLC", "format": "cell-based, E. coli BL21", "details": "transformation temperature 25° C., pH 8.0, 24 h", "procedure": "Preparation of sample for determining α-ketoisovaleric acid content by HPLC: 1 mL of a transformed transformation solution is centrifuged at 12000 rpm for 5 min, the supernatant is diluted and filtered through a 0.45 μm filtration membrane, and the filtrate is for liquid chromatography.\nDetermination of α-ketoisovaleric acid content by HPLC: a waters high performance liquid chromatograph (equipped with a UV-visible detector) and a Bio-Rad Aminex HPX-87H (300×7.8 mm, 9 μm) chromatographic column are used, and the mobile phase is dilute sulfuric acid with the concentration of 2.5 mmol/L. The mobile phase is filtered through a 0.22 μm filtration membrane; the filtrate is subjected to ultrasonic degassing; and detection is performed at the flow rate of 0.6 mL/min, the column temperature of 35° C. and the ultraviolet detection wavelength of 210 nm.\n(2) Shake flask screening of single mutants: The obtained 4 mutant strains and a strain containing wild-type L-amino acid deaminase were respectively inoculated into an LB seed medium, and cultured at 200 rpm at 37° C. for about 10 h. The products were respectively inoculated into a shake flask fermentation medium with the inoculum size of 5% of the medium by volume, and cultured at 200 rpm at 37° C. until OD600 was about 0.8. IPTG with the final concentration of 0.04 mmol/L was added for induction, and the induction was performed at 200 rpm at 25° C. for 14 h. The product was centrifuged at 6000 rpm for 8 min to collect bacterial cells. The bacterial cells collected by centrifugation were used for later transformation experiments.\nTransformation conditions: transformation temperature 25° C., reaction pH 8.0, and transformation time 24 h.\nThe yield of α-ketoisovaleric acid of the transformation solution after the completion of the transformation was determined by HPLC. Finally, S98A produced α-ketoisovaleric acid at the highest yield.", "units": {"α-ketoisovaleric acid": "g/L"}, "values": [{"molecule": "PmirLAAD^S98A (protein) MNISRRKLLLGVGAAGVLAGGAALVPMVRRDGKFVEAKSRASFVEGTQGALPKEADVVIIGAGIQGIMTAINLAERGMSVTILEKGQIAGEQSGRAYAQIISYQTSPEIFPLHHYGKILWRGMNEKIGADTSYRTQGRVEALADEKALDKAQAWIKTAKEAAGFDTPLNTRIIKGEELSNRLVGAQTPWTVAAFEEDSGSVDPETGTPALARYAKQIGVKIYTNCAVRGIETAGGKISDVVSEKGAIKTSQVVLAGGIWSRLFMGNMGIDIPTLNVYLSQQRVSGVPGAPRGNVHLPNGIHFREQADGTYAVAPRIFTSSIVKDSFLLGPKFMHLLGGGELPLEFSIGEDLFNSFKMPTSWNLDEKTPFEQFRVATATQNTQHLDAVFQRMKTEFPVFEKSEVVERWGAVVSPTFDELPIISEVKEYPGLVINTATVWGMTEGPAAGEVTADIVMGKKPVIDPTPFSLDRFKK", "α-ketoisovaleric acid": 46.9}, {"molecule": "PmirLAAD^T105A (protein) MNISRRKLLLGVGAAGVLAGGAALVPMVRRDGKFVEAKSRASFVEGTQGALPKEADVVIIGAGIQGIMTAINLAERGMSVTILEKGQIAGEQSGRAYSQIISYQASPEIFPLHHYGKILWRGMNEKIGADTSYRTQGRVEALADEKALDKAQAWIKTAKEAAGFDTPLNTRIIKGEELSNRLVGAQTPWTVAAFEEDSGSVDPETGTPALARYAKQIGVKIYTNCAVRGIETAGGKISDVVSEKGAIKTSQVVLAGGIWSRLFMGNMGIDIPTLNVYLSQQRVSGVPGAPRGNVHLPNGIHFREQADGTYAVAPRIFTSSIVKDSFLLGPKFMHLLGGGELPLEFSIGEDLFNSFKMPTSWNLDEKTPFEQFRVATATQNTQHLDAVFQRMKTEFPVFEKSEVVERWGAVVSPTFDELPIISEVKEYPGLVINTATVWGMTEGPAAGEVTADIVMGKKPVIDPTPFSLDRFKK", "α-ketoisovaleric acid": 44.6}, {"molecule": "PmirLAAD^S106A (protein) MNISRRKLLLGVGAAGVLAGGAALVPMVRRDGKFVEAKSRASFVEGTQGALPKEADVVIIGAGIQGIMTAINLAERGMSVTILEKGQIAGEQSGRAYSQIISYQTAPEIFPLHHYGKILWRGMNEKIGADTSYRTQGRVEALADEKALDKAQAWIKTAKEAAGFDTPLNTRIIKGEELSNRLVGAQTPWTVAAFEEDSGSVDPETGTPALARYAKQIGVKIYTNCAVRGIETAGGKISDVVSEKGAIKTSQVVLAGGIWSRLFMGNMGIDIPTLNVYLSQQRVSGVPGAPRGNVHLPNGIHFREQADGTYAVAPRIFTSSIVKDSFLLGPKFMHLLGGGELPLEFSIGEDLFNSFKMPTSWNLDEKTPFEQFRVATATQNTQHLDAVFQRMKTEFPVFEKSEVVERWGAVVSPTFDELPIISEVKEYPGLVINTATVWGMTEGPAAGEVTADIVMGKKPVIDPTPFSLDRFKK", "α-ketoisovaleric acid": 44.9}, {"molecule": "PmirLAAD^L341A (protein) MNISRRKLLLGVGAAGVLAGGAALVPMVRRDGKFVEAKSRASFVEGTQGALPKEADVVIIGAGIQGIMTAINLAERGMSVTILEKGQIAGEQSGRAYSQIISYQTSPEIFPLHHYGKILWRGMNEKIGADTSYRTQGRVEALADEKALDKAQAWIKTAKEAAGFDTPLNTRIIKGEELSNRLVGAQTPWTVAAFEEDSGSVDPETGTPALARYAKQIGVKIYTNCAVRGIETAGGKISDVVSEKGAIKTSQVVLAGGIWSRLFMGNMGIDIPTLNVYLSQQRVSGVPGAPRGNVHLPNGIHFREQADGTYAVAPRIFTSSIVKDSFLLGPKFMHLLGGGEAPLEFSIGEDLFNSFKMPTSWNLDEKTPFEQFRVATATQNTQHLDAVFQRMKTEFPVFEKSEVVERWGAVVSPTFDELPIISEVKEYPGLVINTATVWGMTEGPAAGEVTADIVMGKKPVIDPTPFSLDRFKK", "α-ketoisovaleric acid": 43.6}, {"molecule": "PmirLAAD^S106A/L341A (protein) MNISRRKLLLGVGAAGVLAGGAALVPMVRRDGKFVEAKSRASFVEGTQGALPKEADVVIIGAGIQGIMTAINLAERGMSVTILEKGQIAGEQSGRAYSQIISYQTAPEIFPLHHYGKILWRGMNEKIGADTSYRTQGRVEALADEKALDKAQAWIKTAKEAAGFDTPLNTRIIKGEELSNRLVGAQTPWTVAAFEEDSGSVDPETGTPALARYAKQIGVKIYTNCAVRGIETAGGKISDVVSEKGAIKTSQVVLAGGIWSRLFMGNMGIDIPTLNVYLSQQRVSGVPGAPRGNVHLPNGIHFREQADGTYAVAPRIFTSSIVKDSFLLGPKFMHLLGGGEAPLEFSIGEDLFNSFKMPTSWNLDEKTPFEQFRVATATQNTQHLDAVFQRMKTEFPVFEKSEVVERWGAVVSPTFDELPIISEVKEYPGLVINTATVWGMTEGPAAGEVTADIVMGKKPVIDPTPFSLDRFKK", "α-ketoisovaleric acid": 46.5}, {"molecule": "PmirLAAD^S98A/T105A (protein) MNISRRKLLLGVGAAGVLAGGAALVPMVRRDGKFVEAKSRASFVEGTQGALPKEADVVIIGAGIQGIMTAINLAERGMSVTILEKGQIAGEQSGRAYAQIISYQASPEIFPLHHYGKILWRGMNEKIGADTSYRTQGRVEALADEKALDKAQAWIKTAKEAAGFDTPLNTRIIKGEELSNRLVGAQTPWTVAAFEEDSGSVDPETGTPALARYAKQIGVKIYTNCAVRGIETAGGKISDVVSEKGAIKTSQVVLAGGIWSRLFMGNMGIDIPTLNVYLSQQRVSGVPGAPRGNVHLPNGIHFREQADGTYAVAPRIFTSSIVKDSFLLGPKFMHLLGGGELPLEFSIGEDLFNSFKMPTSWNLDEKTPFEQFRVATATQNTQHLDAVFQRMKTEFPVFEKSEVVERWGAVVSPTFDELPIISEVKEYPGLVINTATVWGMTEGPAAGEVTADIVMGKKPVIDPTPFSLDRFKK", "α-ketoisovaleric acid": 52.6}, {"molecule": "PmirLAAD^S98A/S106A (protein) MNISRRKLLLGVGAAGVLAGGAALVPMVRRDGKFVEAKSRASFVEGTQGALPKEADVVIIGAGIQGIMTAINLAERGMSVTILEKGQIAGEQSGRAYAQIISYQTAPEIFPLHHYGKILWRGMNEKIGADTSYRTQGRVEALADEKALDKAQAWIKTAKEAAGFDTPLNTRIIKGEELSNRLVGAQTPWTVAAFEEDSGSVDPETGTPALARYAKQIGVKIYTNCAVRGIETAGGKISDVVSEKGAIKTSQVVLAGGIWSRLFMGNMGIDIPTLNVYLSQQRVSGVPGAPRGNVHLPNGIHFREQADGTYAVAPRIFTSSIVKDSFLLGPKFMHLLGGGELPLEFSIGEDLFNSFKMPTSWNLDEKTPFEQFRVATATQNTQHLDAVFQRMKTEFPVFEKSEVVERWGAVVSPTFDELPIISEVKEYPGLVINTATVWGMTEGPAAGEVTADIVMGKKPVIDPTPFSLDRFKK", "α-ketoisovaleric acid": 50.9}, {"molecule": "PmirLAAD^S98A/L341A (protein) MNISRRKLLLGVGAAGVLAGGAALVPMVRRDGKFVEAKSRASFVEGTQGALPKEADVVIIGAGIQGIMTAINLAERGMSVTILEKGQIAGEQSGRAYAQIISYQTSPEIFPLHHYGKILWRGMNEKIGADTSYRTQGRVEALADEKALDKAQAWIKTAKEAAGFDTPLNTRIIKGEELSNRLVGAQTPWTVAAFEEDSGSVDPETGTPALARYAKQIGVKIYTNCAVRGIETAGGKISDVVSEKGAIKTSQVVLAGGIWSRLFMGNMGIDIPTLNVYLSQQRVSGVPGAPRGNVHLPNGIHFREQADGTYAVAPRIFTSSIVKDSFLLGPKFMHLLGGGEAPLEFSIGEDLFNSFKMPTSWNLDEKTPFEQFRVATATQNTQHLDAVFQRMKTEFPVFEKSEVVERWGAVVSPTFDELPIISEVKEYPGLVINTATVWGMTEGPAAGEVTADIVMGKKPVIDPTPFSLDRFKK", "α-ketoisovaleric acid": 51.5}, {"molecule": "PmirLAAD^T105A/S106A (protein) MNISRRKLLLGVGAAGVLAGGAALVPMVRRDGKFVEAKSRASFVEGTQGALPKEADVVIIGAGIQGIMTAINLAERGMSVTILEKGQIAGEQSGRAYSQIISYQAAPEIFPLHHYGKILWRGMNEKIGADTSYRTQGRVEALADEKALDKAQAWIKTAKEAAGFDTPLNTRIIKGEELSNRLVGAQTPWTVAAFEEDSGSVDPETGTPALARYAKQIGVKIYTNCAVRGIETAGGKISDVVSEKGAIKTSQVVLAGGIWSRLFMGNMGIDIPTLNVYLSQQRVSGVPGAPRGNVHLPNGIHFREQADGTYAVAPRIFTSSIVKDSFLLGPKFMHLLGGGELPLEFSIGEDLFNSFKMPTSWNLDEKTPFEQFRVATATQNTQHLDAVFQRMKTEFPVFEKSEVVERWGAVVSPTFDELPIISEVKEYPGLVINTATVWGMTEGPAAGEVTADIVMGKKPVIDPTPFSLDRFKK", "α-ketoisovaleric acid": 49.4}, {"molecule": "PmirLAAD^T105A/L341A (protein) MNISRRKLLLGVGAAGVLAGGAALVPMVRRDGKFVEAKSRASFVEGTQGALPKEADVVIIGAGIQGIMTAINLAERGMSVTILEKGQIAGEQSGRAYSQIISYQASPEIFPLHHYGKILWRGMNEKIGADTSYRTQGRVEALADEKALDKAQAWIKTAKEAAGFDTPLNTRIIKGEELSNRLVGAQTPWTVAAFEEDSGSVDPETGTPALARYAKQIGVKIYTNCAVRGIETAGGKISDVVSEKGAIKTSQVVLAGGIWSRLFMGNMGIDIPTLNVYLSQQRVSGVPGAPRGNVHLPNGIHFREQADGTYAVAPRIFTSSIVKDSFLLGPKFMHLLGGGEAPLEFSIGEDLFNSFKMPTSWNLDEKTPFEQFRVATATQNTQHLDAVFQRMKTEFPVFEKSEVVERWGAVVSPTFDELPIISEVKEYPGLVINTATVWGMTEGPAAGEVTADIVMGKKPVIDPTPFSLDRFKK", "α-ketoisovaleric acid": 47.1}]}]}
